{
  "source": "patent US20070105924A1",
  "about": "“Vigabatrin bioisoteres and related methods of use” (priority 2005, published 2007)",
  "test_in_all_cases": "purified protein, by the assay type",
  "conditions_in_all_cases": "other: substrate of GABA-AT, 1 h incubation, 25° C., pH 8.5",
  "key": {"NCCCC(=O)O": {"test_system": "NCCCC(=O)O"}, "NCCCCc1nnn[nH]1": {"test_system": "NCCCCc1nnn[nH]1", "method": "(§1) After incubation (48 h for the preliminary test, 1 h for determination of kinetic constants), the mixture was quenched with trichloroacetic acid. The resulting [^14C]glutamate was isolated by cation-exchange chromatography, and the DPM (disintegration per minute) value was measured. Controls consisted of the entire incubation mixture with substrates omitted. The substrate kinetic constants kcat and Km were determined by the method of Hanes and Woolf, as referenced above."}, "NCCc1nnn[nH]1": {"test_system": "NCCc1nnn[nH]1", "method": "as §1"}, "NCCCc1nnn[nH]1": {"test_system": "NCCCc1nnn[nH]1", "method": "as §1"}},
  "data": [
    {"substance": "GABA-AT (Sus scrofa)", "values": [
      {"measurement": "Km", "setting": "NCCCC(=O)O", "value": 2400, "unit": "µM"},
      {"measurement": "kcat", "setting": "NCCCC(=O)O", "value": 0.817, "unit": "s⁻¹"},
      {"measurement": "kcat/Km", "setting": "NCCCC(=O)O", "value": 340, "unit": "M⁻¹ s⁻¹"},
      {"measurement": "Km", "setting": "NCCCCc1nnn[nH]1", "value": 8000, "unit": "µM"},
      {"measurement": "kcat", "setting": "NCCCCc1nnn[nH]1", "value": 0.693, "unit": "s⁻¹"},
      {"measurement": "kcat/Km", "setting": "NCCCCc1nnn[nH]1", "value": 86.7, "unit": "M⁻¹ s⁻¹"},
      {"measurement": "Km", "setting": "NCCc1nnn[nH]1", "value": 2300, "unit": "µM"},
      {"measurement": "kcat", "setting": "NCCc1nnn[nH]1", "value": 0.265, "unit": "s⁻¹"},
      {"measurement": "kcat/Km", "setting": "NCCc1nnn[nH]1", "value": 115, "unit": "M⁻¹ s⁻¹"},
      {"measurement": "Km", "setting": "NCCCc1nnn[nH]1", "value": 2400, "unit": "µM"},
      {"measurement": "kcat", "setting": "NCCCc1nnn[nH]1", "value": 0.477, "unit": "s⁻¹"},
      {"measurement": "kcat/Km", "setting": "NCCCc1nnn[nH]1", "value": 195, "unit": "M⁻¹ s⁻¹"}
    ]}
  ]
}
